# Measurements: patent US20190203229, “cis AND trans REQUIREMENTS FOR […] RESOLUTION OF HUMAN BOCAVIRUS 1” (University of Iowa Research Foundation, published 2019)
# Target: GST (UniProt P08515 P08515:1-218)
# Assay: EMSA; negative control
# Details: label: 32P or biotin
# Sequence of GST (P08515 whole entry, one chain of several): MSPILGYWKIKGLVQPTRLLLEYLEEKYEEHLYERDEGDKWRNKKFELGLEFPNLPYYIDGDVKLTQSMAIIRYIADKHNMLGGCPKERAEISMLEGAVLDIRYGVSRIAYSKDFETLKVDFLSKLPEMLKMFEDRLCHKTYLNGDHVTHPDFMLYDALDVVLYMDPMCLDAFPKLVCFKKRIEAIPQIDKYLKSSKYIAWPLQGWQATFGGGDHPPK
binder,measurement,value
B19V Ori (dsDNA) DNA 1: GCCGCCGGTCGCCGCCGGTAGGCGGGACTTCCGGTACA DNA 2: TGTACCGGAAGTCCCGCCTACCGGCGGCGACCGGCGGC,binding result,no binding
